Data on 26 substances can be found in patent US20250129170A1.

This assay has as its target human EPOR on cells (293T/EPOR cells; UT-7 cells) (human) (UniProt P19235). Kind of assay: cell-based or functional assay.

human EPOR on cells (293T/EPOR cells; UT-7 cells) (human), sequence (P19235 25-508): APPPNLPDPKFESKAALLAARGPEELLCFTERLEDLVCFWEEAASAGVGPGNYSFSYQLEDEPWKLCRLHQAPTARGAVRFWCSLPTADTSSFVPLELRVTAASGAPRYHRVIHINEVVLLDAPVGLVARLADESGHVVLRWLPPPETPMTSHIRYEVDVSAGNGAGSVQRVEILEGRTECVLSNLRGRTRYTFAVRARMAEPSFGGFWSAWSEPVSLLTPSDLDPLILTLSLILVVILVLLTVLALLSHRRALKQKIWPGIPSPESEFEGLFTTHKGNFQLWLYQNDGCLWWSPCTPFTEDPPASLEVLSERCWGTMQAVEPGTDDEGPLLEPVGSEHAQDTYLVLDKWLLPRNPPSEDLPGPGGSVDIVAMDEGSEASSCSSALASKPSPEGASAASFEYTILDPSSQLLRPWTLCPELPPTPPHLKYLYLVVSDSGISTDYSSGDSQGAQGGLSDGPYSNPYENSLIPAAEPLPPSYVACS

On to “IME005 (EPO-Fc, K45D) (from UniProt P01588 28-193) (Fc fusion)”, for which the EPO-mediated Stat5 Phosphorylation in 293T/EPOR, Elisa came to 86%.
The substance “IME006 (EPO-Fc, N147K) (from UniProt P01588 28-193) (Fc fusion)” came in with an EPO-mediated Stat5 Phosphorylation in 293T/EPOR, Elisa of 37%.
As for “IME007 (EPO-Fc, R150E) (from UniProt P01588 28-193) (Fc fusion)”, the figure is 27%; as for “IME008 (EPO-Fc, R103A) (from UniProt P01588 28-193) (Fc fusion)”, 30%; as for “IME009 (EPO-Fc, K45D/R103A) (from UniProt P01588 28-193) (Fc fusion)”, 13%.
The substance “IME010 (EPO-Fc, N147K/R103A) (from UniProt P01588 28-193) (Fc fusion)” had an EPO-mediated Stat5 Phosphorylation in 293T/EPOR, Elisa of 5%.
Substance “IME011 (EPO-Fc, R150E/R103A) (from UniProt P01588 28-193) (Fc fusion)” returned an EPO-mediated Stat5 Phosphorylation in 293T/EPOR, Elisa of 5%.
On to “IME012 (EPO-Fc, E62R) (from UniProt P01588 28-193) (Fc fusion)”, for which the EPO-mediated Stat5 Phosphorylation in 293T/EPOR, Elisa was determined as 4%.
Regarding “IME013 (EPO-Fc, Q65A) (from UniProt P01588 28-193) (Fc fusion)”, the EPO-mediated Stat5 Phosphorylation in 293T/EPOR, Elisa came to 100%.
In the case of “IME014 (EPO-Fc, E72R) (from UniProt P01588 28-193) (Fc fusion)”, the EPO-mediated Stat5 Phosphorylation in 293T/EPOR, Elisa is 82%.
Consider “IME015 (EPO-Fc, R76E) (from UniProt P01588 28-193) (Fc fusion)”, for which the EPO-mediated Stat5 Phosphorylation in 293T/EPOR, Elisa was 27%.
“IME030 (HSA-HBP, helix B peptide fused to albumin)”: the EPO-mediated Stat5 Phosphorylation in 293T/EPOR, Elisa amounted to 0%.
For the substance “IME031 (HSA-HBSP, helix B surface peptide fused to albumin)”, the EPO-mediated Stat5 Phosphorylation in 293T/EPOR, Elisa turned out to be 0%.
In the case of “IME032 (EPO-Fc, E62A) (from UniProt P01588 28-193) (Fc fusion)” it was 2%; in that of “IME033 (EPO-Fc, E72A) (from UniProt P01588 28-193) (Fc fusion)”, 75%.
In the case of “IME034 (EPO-Fc, R76A) (from UniProt P01588 28-193) (Fc fusion)” it was 5%; in that of “IME037 (EPO-Fc, Q58A) (from UniProt P01588 28-193) (Fc fusion)”, 71%.
Substance “IME038 (EPO-Fc, L69A) (from UniProt P01588 28-193) (Fc fusion)” showed an EPO-mediated Stat5 Phosphorylation in 293T/EPOR, Elisa of 57%.
Turning to “IME039 (EPO-Fc, L80A) (from UniProt P01588 28-193) (Fc fusion)”, the EPO-mediated Stat5 Phosphorylation in 293T/EPOR, Elisa came out at 32%.
As for “IME043 (EPO-HSA, R103A) (from UniProt P01588 28-193)”, the EPO-mediated Stat5 Phosphorylation in 293T/EPOR, Elisa was 0%.
On to “IME044 (EPO-HSA, Q65A/E72R) (from UniProt P01588 28-193)”, for which the EPO-mediated Stat5 Phosphorylation in 293T/EPOR, Elisa came to 94%.
In the case of “IME045 (EPO-HSA, Q65A/E72R/N83A) (from UniProt P01588 28-193)” it was 105%.
In the case of “IME046 (EPO-HSA, K20A/K45A/K52A) (from UniProt P01588 28-193)” it was 90%.
As to “IME047 (EPO-HSA, K140A/K152A) (from UniProt P01588 28-193)”, the EPO-mediated Stat5 Phosphorylation in 293T/EPOR, Elisa worked out at 23%.
With “IME048 (EPO-HSA, K140A/K152A/K154A) (from UniProt P01588 28-193)”, the EPO-mediated Stat5 Phosphorylation in 293T/EPOR, Elisa is 11%.
In the case of “IME049 (EPO-HSA, K20A/K45A/K52A/K140A/K152A/K154A) (from UniProt P01588 28-193)” it was 15%.
